For assay [1], the target named is T1, IL-7 receptor (IL-7Rα/γc heterodimer) on primary human T cells (human, UniProt P16871 21-459; P31785 23-369).
T1 sequence (looked up) 1: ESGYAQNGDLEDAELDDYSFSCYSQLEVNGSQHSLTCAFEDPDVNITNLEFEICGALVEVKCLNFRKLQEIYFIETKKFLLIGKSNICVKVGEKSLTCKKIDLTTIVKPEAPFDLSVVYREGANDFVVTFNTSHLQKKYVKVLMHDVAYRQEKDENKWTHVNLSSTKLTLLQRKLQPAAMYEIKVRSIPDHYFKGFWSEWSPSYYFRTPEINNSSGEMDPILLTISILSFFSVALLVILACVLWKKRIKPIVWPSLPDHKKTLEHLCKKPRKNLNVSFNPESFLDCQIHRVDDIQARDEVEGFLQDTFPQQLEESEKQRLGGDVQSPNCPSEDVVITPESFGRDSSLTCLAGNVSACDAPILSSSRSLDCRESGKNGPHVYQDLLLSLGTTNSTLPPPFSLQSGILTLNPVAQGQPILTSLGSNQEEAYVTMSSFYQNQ
T1 sequence (looked up) 2: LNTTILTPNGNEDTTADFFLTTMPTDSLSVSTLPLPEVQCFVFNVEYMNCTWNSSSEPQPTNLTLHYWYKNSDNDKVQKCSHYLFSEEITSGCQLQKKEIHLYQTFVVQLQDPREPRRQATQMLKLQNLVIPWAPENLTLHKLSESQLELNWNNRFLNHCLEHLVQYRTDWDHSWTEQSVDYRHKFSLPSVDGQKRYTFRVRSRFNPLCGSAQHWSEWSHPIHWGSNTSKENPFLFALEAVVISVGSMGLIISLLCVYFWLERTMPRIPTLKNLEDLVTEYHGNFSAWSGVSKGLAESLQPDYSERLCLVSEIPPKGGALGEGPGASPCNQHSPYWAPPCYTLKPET
Put plainly: cell-based or functional assay.

The target of assay [2] is T2, Recombinant Human IL-7R alpha/CD127 Fc Avi-tag Protein, CF (R&D Systems #AVI10317-050) (human, UniProt P16871 21-239).
T2 construct: Bought construct; It was loaded on streptavidin (SAX/SAX2) biosensors; not shown: Fc and Avi-tag of a bought protein
T2 sequence (looked up): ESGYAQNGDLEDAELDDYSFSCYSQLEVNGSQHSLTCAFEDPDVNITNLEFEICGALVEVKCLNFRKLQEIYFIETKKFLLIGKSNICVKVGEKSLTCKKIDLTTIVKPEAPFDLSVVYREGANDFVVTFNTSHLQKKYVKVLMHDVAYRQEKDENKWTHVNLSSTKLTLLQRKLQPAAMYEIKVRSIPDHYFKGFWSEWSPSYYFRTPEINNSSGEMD
Kind of assay: BLI (Octet R8); CD127-Fc-Avi loaded on SAX2 sensor, IL-7 polypeptide as analyte.

For assay [3], the target named is T2, Recombinant Human IL-7R alpha/CD127 Fc …. The assay is described as above. The source holds these as a separate data set.
The target is the same in assay [4]. Described as above. The source holds these as a separate data set.
The target is the same in assay [5]. The description is as above. The source holds these as a separate data set.
Assay [6] has the same target. Described as above. The source holds these as a separate data set.
Assay [7] has as its target T3, Biotinylated Recombinant Human PD-1 (CD279)-Fc Chimera (carrier-free), Biolegend #789406 (human, UniProt Q15116 25-167, biotinylated).
T3 construct: Bought PD-1-Fc; also called h-PD1 Fc; not shown: Fc part of a bought chimera
Put plainly: Direct huPD1 ELISA: antibody coated on the plate, serial dilution of biotinylated human PD-1-Fc (x axis 'Biotin PD1 (nM)'), signal at 450 nm. (In an ELISA, binding on a coated surface is turned into a signal by an enzyme label.)

Assay [8] concerns the target T3, Biotinylated Recombinant Human PD-1 …. Kind of assay: ELISA: antibody coated on the plate, serial dilution of biotinylated human PD-1-Fc, streptavidin-HRP, OD 450 nm (x axis printed as 'Molecule (nM)').
Procedure: (§1) Each of these variant conjugates and unmodified antibodies are assayed by ELISA for their ability to bind to human PD-1 according to the following protocol.
(§2) Streptavidin-HRP is Sigma #RABHRP3. TMB solution is 3,3′,5,5′-Tetramethylbenzidine (Sigma T0440). Stop solution is Sigma #CL07STOP solution (0.5M H₂SO₄). Buffers are: Coating buffer is PBS. Wash buffer is PBS-0.02% Tween20. Blocking buffer is PBS-0.02% Tween20 1% BSA. Protein diluent is PBS-0.02% Tween20 0.1% BSA. STOP solution is 0.5M H₂SO₄. Procedure: Immunocytokines and parental antibody are coated overnight at 4° C. The ELISA plates are washed 4 times with 100 μl PBS-0.02% Tween20. and blocked with PBS-1% BSA. A serial dilution of h-PD1 Fc is prepared and plates are incubated for two hours at 37° C., with shaking (600 rpm). ELISA plates are washed and incubated with Streptavidin-HRP 30 min at RT, with shaking (600 rpm). ELISA plates are washed and incubated with ready-to-use TMB solution. Reaction is stopped and plates are read by OD450 on an Enspire plate reader.
The target is the same in assay [9]. Put plainly: Direct huPD1 ELISA: immunocytokine coated on the plate, serial dilution of biotinylated human PD-1-Fc (x axis 'Biotin PD1 (nM)'), signal at 450 nm.
Procedure: as §1, §2
Assay [10] has the same target. Kind of assay: ELISA: immunocytokine coated on the plate, serial dilution of biotinylated human PD-1-Fc, streptavidin-HRP, OD 450 nm (x axis printed as 'Molecule (nM)').
Procedure: as §1, §2
Assay [11] deals with T2, Recombinant Human IL-7R alpha/CD127 Fc …. Kind of assay: BLI (Octet R8); CD127-Fc-Avi loaded on SAX2 sensor, immunocytokine as analyte.
The target is the same in assay [12]. The assay is described as above. This is another data set of the same source.
For assay [13] the target is unchanged. Kind of assay: BLI (Octet R8); CD127-Fc-Avi loaded on SAX2 sensor, IL-7 polypeptide as analyte. This is another data set of the same source. (In general: In BLI a coated tip is dipped into the sample, and binding shifts an interference pattern.)

Where two headings read alike, the source gives them in different places. Bridges are numbered along the chain shown (N, C = ends). [ ]: non-standard residue; d: D form. glutaryl‑PEG9‑azide = glutaryl-PEG9-azide group on the N-terminal amine; L6P = lysine side chain carrying PEG6-NH2 (diglycolyl-PEG-amine); hSer = N[C@@H](CCO)C(=O)O; Nle = CCCC[C@H](N)C(=O)O

The term Kd denotes the free concentration of one partner at which half of the binding sites on the other are occupied at equilibrium, for simple one-to-one binding. The term koff denotes a measure of how fast the partners let go of each other. The kon is a measure of how fast the partners come together. In general, EC50 refers to the concentration needed to bring the measured effect to its halfway point.

T3 sequence (Q15116 25-167, change not shown): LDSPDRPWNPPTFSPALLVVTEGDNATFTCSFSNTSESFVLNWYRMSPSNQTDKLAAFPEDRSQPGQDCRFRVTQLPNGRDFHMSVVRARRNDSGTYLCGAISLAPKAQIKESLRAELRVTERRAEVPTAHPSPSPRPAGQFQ

B1: CMP-108, synthetic IL-7 of SEQ ID NO: 3 with glutaryl-PEG9-azide at the N-terminus (ligand)
chain: {glutaryl‑PEG9‑azide}-DCDIEGKDGKQYESVL[Nle]VSIDQLLDS[Nle]KEIGSNCL[hSer]NEFNFFKRHICDANKEG[Nle]FLFRAARKLRQFLK[Nle]NSTGDF[hSer]LHLLKVSEGTTILLNCTGQVKGRKPAALGEAQPTKSL[hSer]ENKSLKEQKKLNDLCFLKRLLQEIKTCWNKIL[Nle]GTKEH-NH2
modifications: disulfide 34-129, 47-141, 2-92
notes: The suffix is not explained; also called synthetic IL-7, WT with an N-terminal conjugation handle
For the molecule B1, in assay [1], the “EC50 pSTAT5, CD4 Memory” value was determined as 6 pM; the “EC50 pSTAT5, CD4 Naive” value is 6 pM; the “EC50 pSTAT5, CD4 Treg” value was found to be 20 pM; the “EC50 pSTAT5, CD8 Memory” value turned out to be 8 pM. In addition, the “EC50 pSTAT5, CD8 Naive” value in assay [1] is 8 pM. Also, in [2], the Kd was 0.254 nM, the koff turned out to be 0.00167 s⁻¹ and the kon turned out to be 6.59e+06 M⁻¹ s⁻¹. In addition, in [3], the Kd was 2.75 nM, the dissociation rate constant (koff) amounted to 0.00901 s⁻¹ and the kon was determined as 3.28e+06 M⁻¹ s⁻¹.

B2: CMP-110, synthetic IL-7 G85N of SEQ ID NO: 7 with glutaryl-PEG9-azide at the N-terminus (ligand)
chain: {glutaryl‑PEG9‑azide}-DCDIEGKDGKQYESVL[Nle]VSIDQLLDS[Nle]KEIGSNCL[hSer]NEFNFFKRHICDANKEG[Nle]FLFRAARKLRQFLK[Nle]NSTGDF[hSer]LHLLKVSENTTILLNCTGQVKGRKPAALGEAQPTKSL[hSer]ENKSLKEQKKLNDLCFLKRLLQEIKTCWNKIL[Nle]GTKEH-NH2
modifications: disulfide 34-129, 47-141, 2-92
notes: The suffix is not explained; also called CMP-110-001
As for B2, in [1], the “EC50 pSTAT5, CD4 Memory” value turned out to be 30 pM; the “EC50 pSTAT5, CD4 Naive” value turned out to be 30 pM; the “EC50 pSTAT5, CD4 Treg” value was 67 nM; the “EC50 pSTAT5, CD8 Memory” value is 80 pM. Moreover, in [1], the “EC50 pSTAT5, CD8 Naive” value came out at 50 pM. Besides, in [4], the koff is 0.0225 s⁻¹ and the kon came to 2.51e+06 M⁻¹ s⁻¹. Also, in [5], the Kd worked out at 9.47 nM, the koff amounted to 0.0269 s⁻¹ and the kon stood at 2.84e+06 M⁻¹ s⁻¹.

B3: CMP-106, recombinant IL-7 V15W with His-tag (ligand)
chain: DCDIEGKDGKQYESWLMVSIDQLLDSMKEIGSNCLNNEFNFFKRHICDANKEGMFLFRAARKLRQFLKMNSTGDFDLHLLKVSEGTTILLNCTGQVKGRKPAALGEAQPTKSLEENKSLKEQKKLNDLCFLKRLLQEIKTCWNKILMGTKEHVDHHHHHH
notes: V15W is already in the entry, which also includes the C-terminal His-tag; also called IL-7 V15W (Recomb-HIS6)
As to B3, in assay [6], the Kd was 66.3 nM, the koff was 0.0321 s⁻¹ and the kon is 485000 M⁻¹ s⁻¹. In addition, in assay [1], the “EC50 pSTAT5, CD4 Memory” value stood at 0.93 nM; the “EC50 pSTAT5, CD4 Naive” value was found to be 0.814 nM; the “EC50 pSTAT5, CD4 Treg” value stood at 27.7 nM; the “EC50 pSTAT5, CD8 Memory” value was 3.22 nM. Moreover, the “EC50 pSTAT5, CD8 Naive” value in [1] came to 1.28 nM.

B4: LZM-009 (antibody, V domains shown)
VH: QVQLVQSGAEVKKPGASVKVSCKASGYTFTSYYMYWVRQAPGQGLEWMGGVNPSNGGTNFNEKFKSRVTITADKSTSTAYMELSSLRSEDTAVYYCARRDYRYDMGFDYWGQGTTVTVSS
VL: EIVLTQSPATLSLSPGERATISCRASKGVSTSGYSYLHWYQQKPGQAPRLLIYLASYLESGVPARFSGSGSGTDFTLTISSLEPEDFATYYCQHSRELPLTFGTGTKVEIK
notes: It is a whole antibody with an Fc region (conjugated at K248)
On to B4, for which the EC50 in assay [7] and in assay [8] was 0.035 nM in each case.

B5: CMP-041, LZM-009 conjugated to synthetic IL-7 (WT) CMP-108, DAR 1, at K248 (other)
VH: QVQLVQSGAEVKKPGASVKVSCKASGYTFTSYYMYWVRQAPGQGLEWMGGVNPSNGGTNFNEKFKSRVTITADKSTSTAYMELSSLRSEDTAVYYCARRDYRYDMGFDYWGQGTTVTVSS
VL: EIVLTQSPATLSLSPGERATISCRASKGVSTSGYSYLHWYQQKPGQAPRLLIYLASYLESGVPARFSGSGSGTDFTLTISSLEPEDFATYYCQHSRELPLTFGTGTKVEIK
chain: DCDIEGKDGKQYESVLXVSIDQLLDSXKEIGSNCLXNEFNFFKRHICDANKEGXFLFRAARKLRQFLKXNSTGDFXLHLLKVSEGTTILLNCTGQVKGRKPAALGEAQPTKSLXENKSLKEQKKLNDLCFLKRLLQEIKTCWNKILXGTKEH
modifications: not fully specified; norleucine (Nle) at 17, 27, 54, 69, 147; homoserine (Hse) at 36, 76, 114; N-terminal glutaryl-PEG9-azide reacted with the DBCO linker on the antibody; K248 (EU numbering) of the Fc region carries the linker to IL-7 (DAR 1)
notes: Immunocytokine (chemical conjugate, not a fusion)
For the molecule B5, the EC50 in assay [9] was determined as 0.0348 nM. Besides, the EC50 in assay [10] amounted to 0.0348 nM. Moreover, in [11], the off-rate constant (koff) was 0.00979 s⁻¹ and the kon amounted to 2.95e+06 M⁻¹ s⁻¹.

B6: CMP-116, LZM-009 conjugated to synthetic IL-7 (V15W) CMP-107, DAR 1, at K248 (other)
VH: QVQLVQSGAEVKKPGASVKVSCKASGYTFTSYYMYWVRQAPGQGLEWMGGVNPSNGGTNFNEKFKSRVTITADKSTSTAYMELSSLRSEDTAVYYCARRDYRYDMGFDYWGQGTTVTVSS
VL: EIVLTQSPATLSLSPGERATISCRASKGVSTSGYSYLHWYQQKPGQAPRLLIYLASYLESGVPARFSGSGSGTDFTLTISSLEPEDFATYYCQHSRELPLTFGTGTKVEIK
chain: DCDIEGKDGKQYESWLXVSIDQLLDSXKEIGSNCLXNEFNFFKRHICDANKEGXFLFRAARKLRQFLKXNSTGDFXLHLLKVSEGTTILLNCTGQVKGRKPAALGEAQPTKSLXENKSLKEQKKLNDLCFLKRLLQEIKTCWNKILXGTKEH
modifications: not fully specified; norleucine (Nle) at 17, 27, 54, 69, 147; homoserine (Hse) at 36, 76, 114; N-terminal glutaryl-PEG9-azide reacted with the DBCO linker on the antibody; K248 (EU numbering) of the Fc region carries the linker to IL-7 (DAR 1)
notes: Immunocytokine (chemical conjugate)
For B6, the EC50 in assay [9] was 0.0341 nM. Further, in [12], the koff turned out to be 0.0473 s⁻¹ and the kon stood at 2.9e+06 M⁻¹ s⁻¹.

B7: CMP-202, synthetic IL-7 variant of Example 2W (ligand)
chain: {glutaryl‑PEG9‑azide}-DSDIEGKDGKQYESVL[Nle]VSIDQLLDS[Nle]KEIGSNCL[hSer]NEFNFFKRHICDANKEG[Nle]FLFRAARKLRQFLK[Nle]NSTGDF[hSer]LHLLK(L6P)VSENTTILLNSTGQVKGRKPAALGEAQPTKSL[hSer]ENKSLKEQKKLNDLCFLKRLLQEIKTCWNKIL[Nle]GTKEH-NH2
modifications: disulfide 34-129, 47-141
B7: in assay [1], the “EC50 pSTAT5, CD4 Memory” value came to 38.1 nM; the “EC50 pSTAT5, CD4 Naive” value worked out at 18.9 nM; the “EC50 pSTAT5, CD4 Treg” value came to 32.7 nM; the “EC50 pSTAT5, CD8 Memory” value was 37.4 nM. In addition, the “EC50 pSTAT5, CD8 Naive” value in assay [1] was determined as 20.4 nM. In addition, in assay [13], the Kd came to 25.4 nM, the koff came out at 0.00997 s⁻¹ and the kon is 393000 M⁻¹ s⁻¹.

(Values after patent publication US20240424127A1 (BRIGHT PEAK THERAPEUTICS, published 2024).)
